# Molecular target: hepatitis A virus (HAV) particles (hepatitis A virus)
# Test: cell-based or functional assay
substance,measurement,value
D1muc-Fc fusion protein (IgVmuc-hIg),HAV infectivity (neutralization),2 logs

# Reference: patent US20030124114A1
